In the nanobody polyreactivity screen of Harvey et al. (2022):

Experiment: yeast display, Sf9 membrane polyspecificity reagent, FACS + sequencing; frameworks hold sequencing errors
Method in brief: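 A nanobody's polyreactivity label depends on the gate it was sorted from. Yeast display cells were stained with 10% biotinylated, detergent-solubilized Sf9 membrane reagent for 1 hour at 4 °C, enriched on streptavidin microbeads and sorted by FACS. The low and high (top ~1%) gates were set on anti-HA fluorescence for expression and streptavidin fluorescence for reagent binding.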

Sequence	polyreactivity (PSR sort gate)
QVQLVESGAGLVQAGGSLRLSCAASGRTFVYNAMGWYRQAPGKERELVAAISSDGASTYYADSVKGRFTISRDNAKNTVYLQMNRLNPEDTAVYYCAADFSYYSYEHYYWGQATQVTVSS	low polyreactivity
QVQLVEAGGGLVQAGGSLRLSCAASGIIFGFYAMGWYRQAPGKERELVAAITNDGGNTNYADSVKGRFTISRDNAKNTVYLQMNSLKPEDTAVYYCNADRTQDRTPYTYATFDYWGQGTQVTVSS	low polyreactivity
QVQLVESGGGLVQAGGSLRLSCAASGRIFYSYAMGWYRQAPGKERELVAAITDSGGSTYADSVKGRFTISRDNAKNTVYLQMNSLKPEDTAVYADSTYNWYYYYWGQGTQVTVSS	low polyreactivity
QVQHVESGGALVQAGGSLRLSCAASGSTFTRNAMGWDRHAPGKERELVAAITSSGTSTYYADSVKGRFTISRDNAKNTVYLQMNSLKPEATAVYYCAAGIQSTYPKGGYRVTYYYWGQGTQVTVSS	high polyreactivity
QVQLVESGGGLVQAGGSLRLSCAATGRTFPAYAMGWYRQAPGKERELVAAITINGGSTYYADSVKGRFTISRDNAKNSVYLQMNSLKPEDTAVYYCAAYYASPRHGFWGQGTQVTVSS	low polyreactivity
QVQLVESGGGLVQAGGSLRLSCAASGFIFAAYAMGWYRQAPGKERELVAAISYSGDRTYYADSVKGRFTISRDNAKNTVYLQMNSLKPEDTAVYYCDADARAYTYDYWGQGTQVTVSS	high polyreactivity
QVQLVESGGGLVQAGGSLRLSCAASGSTFSRYAMGWSRQAPGKERELVAAISSSGGSTYYADSVKGRFTISRDNAKNTVYLQMNSLKPEDTAVYYCAARIWRTRRYDYWGQGTQVTVSS	high polyreactivity
QVQLVESGGGLVQAGGSLRLSCAASGSTFGSYAMGWYRQAPGKERELVAAISGGGSTYYADSVKGRFTISRDNAKNTVYLQMNSLKPEDTAVYYCNAYWKYWRTNGPGTKYNYWGQGTQVTVSS	high polyreactivity
QVQLVESGGGLVQAGGSLRLSCAASGSTFYVNAMGCYKQAPGKEWELVAAIDGCDTYYADSVKGRFTISRDNAKKTVNLQMNSLKPDDTEVYYCAAESLPEISVGLGYWGQGTQVTVSS	low polyreactivity
QVQLVESGGGLVQAGGSLRLSCAGLRIYLPGYARGWYRQAPGKERELVAVISGSGSGTYYADSVKGRFTISRDNAKNTVYLQMNSLKPEDTAVYYCAADDVGRGSTPYDYWGQGTQVTVSS	high polyreactivity
QVQLVESVGGLVQAGGSLRLSCAASGFIFYGYAMGWYRQAPGKERELVAAISRSGTSTYYADSVKGRFTISRDNAKNTVYLQMNSLKPEDTAVYYCAADYVGWKWGSRGAIYKHYYWGQGTQVTVSS	high polyreactivity
QVQLVESGGRLVQAGGSLRLRCAASGSTIPYNAMGWYRQAPGKERELLAAITSGGSTNYADSVKGRFTISRDNAMNTVYLQMNSLKPEDTAVYYCNADSSGWFPFDYWGQGTQVTVSS	low polyreactivity
QVQLVESGGGLVQAGGSLRLSCAASGSTFGPNAMGWYRQAPGKERELVAAIRSNGGRTYYADSVKGRFTISRDNAKNSVYLQMNSLKPEDTAVYYCAAPHYPYDTPYGYWGQGTQVTVSS	low polyreactivity
QVQLVESGGRLVQAGGSLRLSCAPSGFMFADYMGWYRQAPGKERALVASISSTGSSTYADSVKGRFTITRDNAKNTVYLPMNSLKPEDTAVYDCAATGVWYSSNDYASEYDYWGQGTQVTVSS	high polyreactivity
QVQLVESVGGLVQAGGSLRLSCAASGSTFYENTMGWYRQAPGKERELVAAISFRGGSRYYADSVKGRFTISRDNAKNTVYLQMNSLKPEDTAVYYCNADDSPVPSIRFDYWGEGTQVTVSS	low polyreactivity
QVQLVESGGGLVQAGGSLRLSCAASGSIFRWNAMGWYIQAPGKERELVAAIDSGGSTYADSVKGRFTISRDNAKNTVYLQMNSLKPDDTAVYYCAAEIPDEWPYDYWGQGTQVTVSS	low polyreactivity
QVQLVESGGGLVQAGGSLRLSCAPSGRTFCPYAMGWYRKAPGKERELVAAISSSGSTTYYADSVKGRFTISRDNAKNTVYLQMNSLKPEDNAVYYCAAVYLRGDGEYDYWGQVTQVTVSS	low polyreactivity
QVQLQESGGGLVQAGGSLRLSCAASGNIFEADIMGWYHQAQGKERELVASITDGGSTNYADSVKGRFTINRDNAKNNVYLQMNSLKPEDTAVYYCAAIAYPDIPTYFDYDSDYFYWGQGTQVTVSS	high polyreactivity
QVQLVESGGGLVQAGGSLRLSCAASGFIFRRYAMGWYRQAPGKERELVAGISNRGGRTYYADSVKGRFTISRDNAKNTVYLQMNSLKPEDTAVYYCAADQKSGYRVSRYYVFYDYWGQGTQVTVSS	high polyreactivity
QVQLVESGGGLVQAGGSLRLSCAASGFIFRRYVMGWYRQAPGKERELVAAISRGGSTYYADSVKGRFTISRDNAKNTVYLQMNSLKPEDTAVYYCNTPGGFVGDDYDYWGQGTQVTVSS	high polyreactivity
QVQLVESGGGLVQAGGSLRLSCAASGRTLARNAMGWYRQAPGKEREFVASINGRTTRTYYADSVKGRFTISRDNAKNTVYLQMNSLKPEDTAVYYCAADPPGYVYGKRYYWGQGTQVTVSS	high polyreactivity
QVQLVESGGGLVQAGGSLRLSCAASGRIFQYSAMGWYRQAPGKEREFVASITFRGGRTNYADSVKGRFTISRDNAKNTVYLQMNSLKPEDTAVYYCAVSLRRGGSGYAYDYWGQGTQVTVSS	high polyreactivity

Sequence	polyreactivity (PSR sort gate)
QVQLVESGGGLVQAGGSLRLSCAASGFIFHNYAMGWSRQAPGKERELVAAISWSGSRTYYADSVKGRFTISRDNAKNTVYLQMNSLKPEDTAVYYCNAPGSPVVQQPGYYWGQGTQVTVSS	low polyreactivity
QVQLVESGGGLVQAGGSLRLSCAASGRTFLGNAMGWYRQAPGKERELVAAIRYSGGRTYYADSVKGRFTISRDNAKNTVYLQMNSLKPEDTAVYYCAKDRRYYKAYDYWGQGTQVTVSS	low polyreactivity
QVQLVESGGGLVQAGGSLRLSCAASGSIFTYYAMGWYRQATRKERELLADIRWSVGSTYYADSVKGRFTISRDNAKNTVYLQMNSLKPEDTAVYYCNAVVYIYYLTSYKYGNDSWGQGTQVTVSS	low polyreactivity
QVQLLESGGGLVQAGGSLRLSCAASGFTFSRYAMGWYRQAPGKERELVAAITSSGGSTYYADSVKGRFTISRDNAKNTVYLQMLSLKPEDSAVYYCAAGKYTASNGYGYWGQGTQVTVSS	high polyreactivity
QVQLVESGGGLVQAGGSLRLSCAASGFTFAYYAMGWYRQAPGKERELVAAITVSGASTYYADSVKGRFTISRDNAKNTVYLQMNSLKPEDTAVYYCNASSVSFYYLEPSQPMDYWGQGTQVTVSS	high polyreactivity
QVQLVESGGGLVQAGGSLRLSCAASGLIFYKYAMGWYRQAPGKERELVAAITSGGSTNYADSVKGRFTISRDNAKNTVYLQMNSLKPEDTAVYYCNADYNLYLVVRWWYPPVDYWGQGTQVTVSS	low polyreactivity
QVQLVESGGGLVQAGASLRLSCAASGSTFDQYVMGWYRQAPCKERELVAAISRRGGSTYYADSVKGRFTISRDNEKNTVYLQMNSLQPEDTAVYYCAAPSYYRYDYWGQGTQVTVSS	high polyreactivity
QVQLVESGGGLVQAGRSLRLSCAASVSIFRPNAMGWYRQAPGKERDLVAAISSSGGSTYYSDSVKGRFTISRDNAKNTVYLQMNSLKPDDTAVYYCAAESLSTWIHSRDSWGQGTQVTVSS	low polyreactivity
HVQLVESGGGFVQAGGSLRLSCAASGITFVKYTMGWYRQAPGKERELVAASSRSDGRTYYADSVKGRFTISRDNAKNSVYLQMNSLKPEDTAVYYCNAVYGVIGKGYNYWGQGTQVTVSS	high polyreactivity
QVQLVESAGGLVQAGGSLRLSCAASGSNDTNAMGWYRQEPWKERELVADITSGTPTYADSVKGRFTISRDNAKNTVFLQMNSLKPEDTAVYYCAADIPPWCGDYWGQGTQVTVSS	low polyreactivity
QVQLVESGGGLVQAGGSLRLSCAASGRIFVIYGMGWYRQAPGKERELVAAIRWTGGSTYYADSVKGRFTISRDNAQNTVYLQMNSLQPEDTAVYYCNAGSDRAIWPTHDYWGQGTQVTVSS	low polyreactivity
QVQLVESGGCLVQAGGSHRLSCAASGSIFYIYAMGWYRQAPGKERELVASITFSGDITYYAYSVKGRFTISRDNAKNTFYLHMNSLKPEDTAVYYCAADYHEQSYAVTYDYWGQGTQVTVSS	low polyreactivity
QVQLVESGGGLVQAGGSLRLSCAASGRIFYFNTMGWSRQAPGKERELVAAISKNGGSTYYADSVKGRFTISRDTAKNTVYLQMNSLKPEDTAVYYCAKTRRLSPYDYWGQGTQVTVSS	high polyreactivity
QVQLVESGGGLVQAGGSLRLSCAASGSTLVANAMGWYRQAPGKERELVAAISSGGITYYADSVKGRFTISRDNAKNTVYLQMHSLKPEDTAVYYCAARIRGTWKYGYWGQGTQVTVSS	low polyreactivity
QVQLVESGGGLVQAGGSLRLSCAASGSTFQNYAMGWYIQAPGKERELVAAIRGNGGITYYADSVKGRFTISRDNAKNTVYLQMNSLKPEDTAVYYFAVRSAWVYGIRRDYWGQGTQVTVSS	high polyreactivity
QVQLVESGGGLVQAGGSLRLSCAASGSTFISYAMGWYRPAPGKERELVAAISRNGGSTDYADSVKGRFTISRDNAKNSVYLQMNSLKPEHTAVYYCAAEYDTWWGGYDYWGQGTQVTVSS	high polyreactivity
QVQLVESGGGLVQAGGSLRKSCAASGRIFGINAMGWSRQAPGNERELVAAITWGVGSTYYADSVKGRFTISRDNAKNTVYLQMNSLKPEDTAVYYCAKRRYYGYGGDYWGQGTQVTVSS	high polyreactivity
QVQLVESGGGLVQAGGSLRLSCAASGRTFKYNAMGWYRQAPGKERELVAVIRYSGGTTYYADSVKGRFTISRDNAKNTVYLQMNSLKPEDTAVYYCARGFTYQYSSFYYWGQGTQVTVSS	low polyreactivity
QVQLVESGGGLVQAGGSLRLSCAASGFIFKVNAMGWYRQAPGKERGYVYADSVKGRFTISRDNAKNTVYLQMNSLKPEHTAVYYCAAEPGEGCDYWGQATQVTVSS	low polyreactivity
QVQLVESGGGLVQAGGSLRLSCAASGRIFGRYAMGWYRQAPGKERELVAAISRRGGTTYYADSVKGRFTISRDNAKNTVYLQMNSLKPEDTAVYSSNADTYGYGFDYWGQGTQVTVSS	high polyreactivity
QVQLVESGGRLVQAGGSLSLSCAASGSIFYRNAMGWYSQAPAKEWEFVAVITSSGTSTYYADSVKGRFTISRDNEKNTVSFQMKSLKPEDTAVYYCAADESSPSRGDYWGQGTQVSVSS	low polyreactivity
